These results are taken from patent US20220064278A1 (Janssen / Centocor, published 2022).

In assay [1] the target is T1, recombinant human TNFα (human, UniProt P01375 77-233). Put plainly: cell-based or functional assay.
In assay [2] the target is T1, recombinant human TNFα. Put plainly: inhibition of 125I-TNFα binding to plate-coated p55-sf2 by hybridoma supernatant.
Assay [3] concerns the target T1, recombinant human TNFα. Put plainly: competition: mAb in hybridoma supernatant preincubated with 5 ng/ml 125I-TNFα, mixture added to plate-coated p55-sf2, cpm bound counted; blocked ligand p55-sf2.

Substitutions are numbered along the chain they refer to.

B1: TNV148 (antibody, V domains shown)
VH: QVQLVESGGGVVQPGRSLRLSCAASGFIFSSYAMHWVRQAPGNGLEWVAFMSYDGSNKKYADSVKGRFTISRDNPKNTLYLQMNSLRAEDTAVYYCARDRGIAAGGNYYYYGMDVWGQGTTVTVSS
VL: EIVLTQSPATLSLSPGERATLSCRASQSVYSYLAWYQQKPGQAPRLLIYDASNRATGIPARFSGSGSGTDFTLTISSLEPEDFAVYYCQQRSNWPPFTFGPGTKVDIKR
In the case of B1, the “neutralizing TNFα bioactivity” value in assay [1] was 4 fold (against TNV14). In addition, in assay [2], the “fold better at blocking TNF binding than TNV118 and TNV14” value is about 4 fold. Further, the “IC50 (read off the curve)” value in assay [3] is about 4 ng/mL.

B2: TNV15 (antibody, V domains shown)
VH: B1 VH with I28T, N43K, M51I, S52L, P75S, T78A, I102V, A103S
VL: EIVLTQSPATLSLSPGERATLSCRASQSVSSYLAWYQQKPGQAPRLLIYDASNRATGIPARFSGSGSGTDFTLTISSLEPEDFAVYYCQQRSNWPPFTFGPGTKVDIK
Turning to B2, the “IC50 (read off the curve)” value in assay [3] is about 4 ng/mL.

B3: TNV196 (antibody, V domains shown)
VH: B1 VH with I28T, N43K, M51I, Y60S, I70V, P75S, Y80F, Y94F, A103G
VL: B2 VL with S30Y
On to B3, for which the “neutralizing TNFα bioactivity” value in assay [1] was 4 fold (against TNV14). Further, the “IC50 (read off the curve)” value in assay [3] was about 4 ng/mL.
